Laboratory results published in publication PMC6459815.

Target: recombinant CD47 (integrin associated protein), K24-S139, GST-fused (human)
Test: SPR; Biacore X100; recombinant CD47 immobilised on a CM5 chip (amine coupling), analyte at 0.125, 0.25, 0.5, 1 and 2 uM, single-cycle kinetics, 120 s contact, 180 s dissociation (last cycle 580 s); HBS-EP+ (10 mM HEPES pH 7.4, 150 mM NaCl, 3 mM EDTA, 0.05% P20)

Substance: recombinant PfMSA180-Tr4 (PfMSA180 truncate 4, residues A805-P1093) (domain or fragment)
- Kd: 2.06 nM
- stoichiometry N: 1
